In assay [1] the target is T1, CAPRIN-1 protein on the cell surface of human cancer cells (human, UniProt Q14444 2-709).
T1 sequence (looked up): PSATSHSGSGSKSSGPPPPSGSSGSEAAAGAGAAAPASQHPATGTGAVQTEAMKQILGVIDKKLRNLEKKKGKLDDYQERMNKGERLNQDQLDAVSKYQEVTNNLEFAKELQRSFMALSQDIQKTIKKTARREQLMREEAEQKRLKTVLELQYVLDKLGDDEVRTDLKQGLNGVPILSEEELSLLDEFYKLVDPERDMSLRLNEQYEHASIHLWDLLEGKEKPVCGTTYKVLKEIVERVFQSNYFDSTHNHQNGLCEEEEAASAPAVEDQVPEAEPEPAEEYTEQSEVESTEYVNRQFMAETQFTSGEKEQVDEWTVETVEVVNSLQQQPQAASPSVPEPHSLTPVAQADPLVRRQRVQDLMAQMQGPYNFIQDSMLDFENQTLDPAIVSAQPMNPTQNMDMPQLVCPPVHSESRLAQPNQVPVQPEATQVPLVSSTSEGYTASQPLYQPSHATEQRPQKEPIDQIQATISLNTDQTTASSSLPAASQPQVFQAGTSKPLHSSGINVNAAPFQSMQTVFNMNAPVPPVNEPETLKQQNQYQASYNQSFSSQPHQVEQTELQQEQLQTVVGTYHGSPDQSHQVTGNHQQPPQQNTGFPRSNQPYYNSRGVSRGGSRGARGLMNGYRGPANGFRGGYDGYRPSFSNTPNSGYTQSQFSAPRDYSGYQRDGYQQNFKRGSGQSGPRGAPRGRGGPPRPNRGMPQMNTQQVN
The assay can be described thus: cell-based or functional assay.

The target in assay [2] is T1, CAPRIN-1 protein on the cell surface of …. The assay can be described thus: flow cytometry on Hep3B, HepG2, SK-Hep-1, SW480; culture supernatant; vs isotype control. As to the method:
Subsequently, four liver cancer cell lines (Hep3 GB, HepG2, SK-Hep-1, and SW480), which were confirmed to express a CAPRIN-1 gene, were investigated for whether or not a CAPRIN-1 protein is expressed on the surfaces of these cells. 1×10⁶ cells of each cell line were centrifuged with a 1.5-mL micro centrifugation tube. To the cells was added the culture supernatant (100 μL) containing any of mouse monoclonal antibodies #1 to #22 against a CAPRIN-1 protein reacting to cancer cell surface produced in Example 4 and mouse-chicken chimeric antibodies #1 to #3 against a CAPRIN-1 protein produced in the above (2), followed by being left to stand on ice for 1 hour. After washing with PBS, the cells were suspended in a FITC-labeled goat anti-mouse IgG antibody (manufactured by Invitrogen Corporation) diluted by 500-fold with PBS containing 0.1% FBS, followed by being left to stand on ice for 1 hour. After washing with PBS, the fluorescence intensity was measured with FACS Calibur available from Becton, Dickinson and Company. Separately, as a control, the same procedure as in above was performed using an iso-type control antibody, instead of the culture supernatants containing the mouse monoclonal antibodies #1 to #22 against a CAPRIN-1 protein and the mouse-chicken chimeric antibodies #1 to #3. As a result, the fluorescence intensity in the cells to which any of the monoclonal antibodies #1 to #22 and the mouse-chicken chimeric antibodies #1 to #3 was added was 20% or more higher than that in the control in every case. Specifically, in the case of using mouse-chicken chimeric antibody #1, the fluorescence intensity was enhanced by 200% or more in both SK-Hep-1 and Hep3B. […] The rate of increase in the fluorescence intensity is represented by the rate of increase in the mean fluorescence intensity (MFI value) in each cell and is calculated by the following calculation formula: […]

Assay [3] has as its target T2, polypeptide set forth in SEQ ID NO: 266 (human).
T2 construct: identified by ELISA on synthetic 12-16 aa peptides of human CAPRIN-1
T2 peptide: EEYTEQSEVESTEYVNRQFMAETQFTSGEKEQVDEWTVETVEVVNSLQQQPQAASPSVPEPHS
The assay can be described thus: ELISA on immobilised synthetic CAPRIN-1 peptides, culture supernatant.

Assay [4] addresses T3, peptide set forth in SEQ ID NO: 267 (human).
T3 peptide: QQPQAASPSVPE
Described as above.

The target of assay [5] is T4, human CAPRIN-1 recombinant protein (human, UniProt Q14444 1-709).
T4 construct: also called CAPRIN-1 protein; human CAPRIN-1 protein
T4 sequence: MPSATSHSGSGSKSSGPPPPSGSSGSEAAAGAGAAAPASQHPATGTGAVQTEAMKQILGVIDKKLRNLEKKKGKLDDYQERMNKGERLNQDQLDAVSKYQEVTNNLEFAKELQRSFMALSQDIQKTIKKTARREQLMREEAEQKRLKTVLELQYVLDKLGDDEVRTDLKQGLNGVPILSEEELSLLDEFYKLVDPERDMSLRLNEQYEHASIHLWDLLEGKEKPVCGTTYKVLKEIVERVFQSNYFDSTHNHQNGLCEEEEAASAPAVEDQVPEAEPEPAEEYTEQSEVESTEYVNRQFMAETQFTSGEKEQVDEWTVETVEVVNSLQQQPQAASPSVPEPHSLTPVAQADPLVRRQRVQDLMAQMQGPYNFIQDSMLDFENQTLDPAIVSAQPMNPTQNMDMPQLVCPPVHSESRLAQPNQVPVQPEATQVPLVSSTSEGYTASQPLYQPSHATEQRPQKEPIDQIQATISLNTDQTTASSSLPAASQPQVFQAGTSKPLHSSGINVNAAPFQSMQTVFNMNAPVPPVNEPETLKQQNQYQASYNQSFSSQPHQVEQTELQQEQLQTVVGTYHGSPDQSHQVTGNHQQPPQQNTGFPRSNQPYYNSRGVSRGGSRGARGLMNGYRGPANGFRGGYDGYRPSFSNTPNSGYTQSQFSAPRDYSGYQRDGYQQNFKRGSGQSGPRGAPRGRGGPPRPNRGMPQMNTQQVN
The assay can be described thus: reactivity with CAPRIN-1 protein, method not detailed.

The target in assay [6] is T5, polypeptide set forth in SEQ ID NO: 430 (human).
T5 peptide: ATQVPLVSSTSEGYTA
The assay can be described thus: reactivity with the epitope peptide, method not detailed.

For assay [7], the target named is T1, CAPRIN-1 protein on the cell surface of …. The assay can be described thus: reactivity with liver cancer cell lines, method not detailed.

Here are results for ten molecules from US20150218285A1 (TORAY INDUSTRIES, published 2015).

B1: mouse monoclonal antibody #12 (antibody, V domains shown)
VH: EVQLHQFGAELVKPGASVKISCKASGYTFTDYNMDWVKQSHGKSLEWIGDINPNYDSTSYNQKFKGKATLTVDKSSSTAYMELRSLTSEDTAVYYCARSRSYDYEGFAYWGQGTLVTVSA
VL: DIQMTQSPASLSASVGETVTITCRASGNIHNYLAWYQQKQGKSPQLLVYNAKTLADGVPSRFSGSGSGTQYSLKINSLQPEDFGSYYCQHFWSTLTFGAGTKLELKR
notes: mouse hybridoma antibody
For B1, the “cytotoxicity (ADCC, 51Cr release) on SK-Hep-1” value (“cytotoxicity” for short) in assay [1] was ≥ 12%. Further, in assay [2], the “rate of increase in mean fluorescence intensity” value (“rate of increase” for short) is ≥ 20%.

B2: mouse monoclonal antibody #15 (antibody, V domains shown)
VH: EVQLHQFGAELVKPGASVKISCKASGYTFTDYNMDWVKQSHGKSLEWIGDINPNYDSTSYNQKFKGKATLTVDKSSSTAYMELRSLTSEDTAVYYCARSRSYDYEGFAYWGQGTLVTVSA
VL: SGDRVSLSCRASQSISNYLHWYQQKSHESPRLLIKYASQSISGIPSRFSGSGSGTDFTLSINSVETEDFGMYFCQQSNSWPYTFGAGTKLEIKQ
notes: mouse hybridoma antibody
As for B2, in assay [1], the “cytotoxicity” value is ≥ 12%. The “rate of increase” value in assay [2] is ≥ 20%.

B3: mouse monoclonal antibody #14 (antibody, V domains shown)
VH: EVQLHQFGAELVKPGASVKISCKASGYTFTDYNMDWVKQSHGKSLEWIGDINPNYDSTSYNQKFKGKATLTVDKSSSTAYMELRSLTSEDTAVYYCARSRSYDYEGFAYWGQGTLVTVSA
VL: DIQLTQSPASLSASVGETVTITCRASGNIHNYLAWYQQKQGKSPQLLVYNAKTLADGVPSRFSGSGSGTQYSLKINSLQPEDFGSYYCQHFWSTLTFGGGTKLEIK
notes: mouse hybridoma antibody
Turning to B3, in assay [1], the “cytotoxicity” value is ≥ 12%. In addition, the “rate of increase” value in assay [2] is ≥ 20%.

B4: mouse monoclonal antibody #4 (antibody, V domains shown)
VH: GAELVRSGASVKMSCKASGYSFTDYNMYWVKQTPGQGLEWIGYIYPGNGGTNYNQKFKGKATLTADTSSSTAYMQISSLTSEDSAVYFCARDYDDGGYAMDYWGQGTTVTVSS
VL: DIQMTQSPASLSASVGETVTITCRASGNIHNYLTWYQQKQGKSPQLLVYNAKTLADGVPSRFSGSGSGTQYSLKINRLQPEDFGSYYCQHFWNIPWTFGGGTKLNSR
notes: mouse hybridoma antibody
Turning to B4, in assay [1], the “cytotoxicity” value is ≥ 12%. Moreover, the binding result in assay [3] and in assay [4] was “binds” in each case. Also, the “rate of increase” value in assay [2] was ≥ 20%.

B5: mouse monoclonal antibody #3 (antibody, V domains shown)
VH: GGGLVKPGGSLKLSCAASGFTFSSYGMSWVRQTPEKRLEWVATISSGGSYTYYPDSVKGRFTISRDNAKNTLYLQMSSLRSEDTAMYYCASLASYYFDYWGQGTTLTVSS
VL: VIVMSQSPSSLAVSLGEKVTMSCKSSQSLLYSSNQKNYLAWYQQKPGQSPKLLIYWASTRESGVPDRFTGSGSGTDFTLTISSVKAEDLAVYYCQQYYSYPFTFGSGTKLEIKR
B5: the “cytotoxicity” value in assay [1] was ≥ 12%. For the same molecule, the “rate of increase” value in assay [2] is ≥ 20%.

B6: mouse monoclonal antibody #18 (antibody, V domains shown)
VH: LQESGAELARPGASVKLSCKASGYTFTSYWMQWVKQRPGQGLEWIGAIYPGDGDTRYTQKFKGKATLTADKSSSTAYMQLSSLASEDSAVYYCARGEYGNYFAYWGQGTTVTVSS
VL: TSDASLGERVTITCKASQDINSYLSWFQQKPGKSPKTLIYRANRLVDGVPSRFSGSGSGQDYSLTISSLEYEDMGIYYCLQYDEFPLTFGGGTKLEIKQ
notes: mouse hybridoma antibody
In the case of B6, the “cytotoxicity” value in assay [1] is ≥ 12%. Further, the “rate of increase” value in assay [2] is ≥ 20%.

B7: human-chicken chimeric antibody #1 (antibody, human IgG1, kappa, V domains shown)
VH: AVTLDESGGGLQMSRGGLSLVCKASGFDFSSYQMNWIRQAPGKGLEFVAAINKFGNSTGHGAAVKGRVTISRDNGQSTVRLQLNNLRAEDTAIYFCTKHAYGYCGSGTWCAAGEIDAWGHGTEVIVSS
VL: QAASTQPSSVSANPGETVEITCSGGGSYSYGWFQQKSPGSAPVTVIYYNNKRPSDIPSRFSGSKSGSTGTLTITGVQADDEAVYYCGSGDSTDTAVFGAGTTLTVLG
notes: chicken variable domains with human IgG1 H-chain and L-chain constant domains; also called human-chicken chimeric monoclonal antibody #1
Consider B7, for which the binding result in assay [3] and in assay [4] was “binds” in each case.

B8: humanized anti-CAPRIN-1 antibody #2 (antibody, human IgG1, V domains shown)
VH: EVQLVESGGGLVQPGGSLRLSCAASGFSFSGSYYMSWVRQAPGKGLEWIAYIYIGDGVTAYANWAKGRFTISKDNSKNTLYLQMNSLRAEDTAVYFCARGNKLWGPGTLVTVSS
VL: DIQMTQSPSSLSASVGDRVTIKCQASQSISSYLAWYQQKPGKAPKRLIYDASNLDSGVPSRFSGSGSGTDFTFTISSLQPEDIATYYCQCTAVSSATIYGNAFGGGTKVEIK
In the case of B8, the binding result in assay [5], in assay [6] and in assay [7] was “binds” throughout.

B9: humanized anti-CAPRIN-1 antibody #1 (antibody, human IgG1, V domains shown)
VH: QVQLVESGGGLVKPGGSLRLSCAASGFSFSGSYYMSWVRQAPGKGLEWIAYIYIGDGVTAYANWAKGRFTISRDNAKNSLYLQMNSLRAEDTAVYFCARGNRLWGQGTLVTVSS
VL: DIQMTQSPSSLSAAVGDRVTIKCQASQSISSYLAWYQQKPGKPPKRLIYDASNLDSGVPSRFSGSGSGTDFTFTISSLQPEDIATYYCQCTAVSSATIYGNAFGGGTKVEIK
Take B9: the binding result in assay [5], in assay [6] and in assay [7] was “binds” in each case.

B10: humanized anti-CAPRIN-1 antibody #3 (antibody, human IgG1, V domains shown)
VH: EVQLVESGGGLVQPGGSLRLSCAASGFSFSGSYYMSWVRQAPGKGLEWIAYIYIGDGVTAYANWAKGRFTISRDNSKNTLYLQMNSLRAEDTAVYYCARGNKLWGPGTLVTVSS
VL: DIQMTQSPSSLSASVGDRVTIKCQASQSISSYLAWYQQKPGKAPKRLIYDASNLDSGVPSRFSGSGSGTDFTFTISSLQPEDIATYYCQCTAVSSATIYGNAFGGGTKVEIK
Turning to B10, the binding result in assay [5], in assay [6] and in assay [7] was “binds” each time.
